{"source": "patent US20120282643A1", "molecular_target": "sulfite reductase tagged with a C-terminal GFP S11 (SEQ ID NO: 16)", "test": "cell-based or functional assay", "data": [{"substance": "Split-YFP S1-10 (T203Y) (from UniProt P42212 1-214)", "values": [{"measurement": "Green Fluorescence (488/510) (clone A6)", "value": 7.74}, {"measurement": "Green Fluorescence (488/510) (clone A8)", "value": 8.54}, {"measurement": "Green Fluorescence (488/510) (clone B3)", "value": 13.9}, {"measurement": "Green Fluorescence (488/510) (clone B4)", "value": 16}, {"measurement": "Green Fluorescence (488/510) (clone B6)", "value": 8.08}, {"measurement": "Green Fluorescence (488/510) (clone B10)", "value": 16.1}, {"measurement": "Green Fluorescence (488/510) (clone C9)", "value": 17.5}, {"measurement": "Green Fluorescence (488/510) (clone D1)", "value": 16.4}, {"measurement": "Green Fluorescence (488/510) (clone D2)", "value": 18.5}, {"measurement": "Green Fluorescence (488/510) (clone D5)", "value": 17.8}, {"measurement": "Green Fluorescence (488/510) (clone D7)", "value": 17.4}, {"measurement": "Green Fluorescence (488/510) (clone D9)", "value": 21}, {"measurement": "Green Fluorescence (488/510) (clone D10)", "value": 18.2}, {"measurement": "Green Fluorescence (488/510) (clone D11)", "value": 17.1}, {"measurement": "Green Fluorescence (488/510) (clone E1)", "value": 12.3}, {"measurement": "Green Fluorescence (488/510) (clone E3)", "value": 17.9}, {"measurement": "Green Fluorescence (488/510) (clone E4)", "value": 17.4}, {"measurement": "Green Fluorescence (488/510) (clone E6)", "value": 15.4}, {"measurement": "Green Fluorescence (488/510) (clone E8)", "value": 22.9}, {"measurement": "Green Fluorescence (488/510) (clone E9)", "value": 23.9}, {"measurement": "Green Fluorescence (488/510) (clone F1)", "value": 15.8}, {"measurement": "Green Fluorescence (488/510) (clone F6)", "value": 11.5}, {"measurement": "Green Fluorescence (488/510) (clone F7)", "value": 17.7}, {"measurement": "Green Fluorescence (488/510) (clone F9)", "value": 21.4}, {"measurement": "Green Fluorescence (488/510) (clone F10)", "value": 8.11}, {"measurement": "Green Fluorescence (488/510) (clone F11)", "value": 19}, {"measurement": "Green Fluorescence (488/510) (clone G9)", "value": 18.6}, {"measurement": "Green Fluorescence (488/510) (clone G10)", "value": 17}, {"measurement": "Green Fluorescence (488/510) (clone H4)", "value": 9.39}, {"measurement": "Green Fluorescence (488/510) (clone H5)", "value": 8.77}, {"measurement": "Green Fluorescence (488/510) (clone H9)", "value": 12.4}, {"measurement": "Green Fluorescence (488/510) (clone H10)", "value": 13.1}, {"measurement": "Ratio Yellow/Green Fluorescence (clone A6)", "value": 18.9}, {"measurement": "Ratio Yellow/Green Fluorescence (clone A8)", "value": 17.5}, {"measurement": "Ratio Yellow/Green Fluorescence (clone B3)", "value": 10.5}, {"measurement": "Ratio Yellow/Green Fluorescence (clone B4)", "value": 9.71}, {"measurement": "Ratio Yellow/Green Fluorescence (clone B6)", "value": 13.7}, {"measurement": "Ratio Yellow/Green Fluorescence (clone B10)", "value": 10.2}, {"measurement": "Ratio Yellow/Green Fluorescence (clone C9)", "value": 9.2}, {"measurement": "Ratio Yellow/Green Fluorescence (clone D1)", "value": 9.41}, {"measurement": "Ratio Yellow/Green Fluorescence (clone D2)", "value": 8.3}, {"measurement": "Ratio Yellow/Green Fluorescence (clone D5)", "value": 8.66}, {"measurement": "Ratio Yellow/Green Fluorescence (clone D7)", "value": 8.97}, {"measurement": "Ratio Yellow/Green Fluorescence (clone D9)", "value": 7.45}, {"measurement": "Ratio Yellow/Green Fluorescence (clone D10)", "value": 7.74}, {"measurement": "Ratio Yellow/Green Fluorescence (clone D11)", "value": 8.31}, {"measurement": "Ratio Yellow/Green Fluorescence (clone E1)", "value": 11.3}, {"measurement": "Ratio Yellow/Green Fluorescence (clone E3)", "value": 8.45}, {"measurement": "Ratio Yellow/Green Fluorescence (clone E4)", "value": 8.79}, {"measurement": "Ratio Yellow/Green Fluorescence (clone E6)", "value": 10.1}, {"measurement": "Ratio Yellow/Green Fluorescence (clone E8)", "value": 7.21}, {"measurement": "Ratio Yellow/Green Fluorescence (clone E9)", "value": 6.93}, {"measurement": "Ratio Yellow/Green Fluorescence (clone F1)", "value": 10.1}, {"measurement": "Ratio Yellow/Green Fluorescence (clone F6)", "value": 12.6}, {"measurement": "Ratio Yellow/Green Fluorescence (clone F7)", "value": 9.1}, {"measurement": "Ratio Yellow/Green Fluorescence (clone F9)", "value": 7.71}, {"measurement": "Ratio Yellow/Green Fluorescence (clone F10)", "value": 14.3}, {"measurement": "Ratio Yellow/Green Fluorescence (clone F11)", "value": 8.74}, {"measurement": "Ratio Yellow/Green Fluorescence (clone G9)", "value": 9.14}, {"measurement": "Ratio Yellow/Green Fluorescence (clone G10)", "value": 9.91}, {"measurement": "Ratio Yellow/Green Fluorescence (clone H4)", "value": 16.6}, {"measurement": "Ratio Yellow/Green Fluorescence (clone H5)", "value": 18.4}, {"measurement": "Ratio Yellow/Green Fluorescence (clone H9)", "value": 13.5}, {"measurement": "Ratio Yellow/Green Fluorescence (clone H10)", "value": 13.3}, {"measurement": "Yellow Fluorescence (510/532) (clone A6)", "value": 146}, {"measurement": "Yellow Fluorescence (510/532) (clone A8)", "value": 150}, {"measurement": "Yellow Fluorescence (510/532) (clone B3)", "value": 146}, {"measurement": "Yellow Fluorescence (510/532) (clone B4)", "value": 155}, {"measurement": "Yellow Fluorescence (510/532) (clone B6)", "value": 111}, {"measurement": "Yellow Fluorescence (510/532) (clone B10)", "value": 165}, {"measurement": "Yellow Fluorescence (510/532) (clone C9)", "value": 161}, {"measurement": "Yellow Fluorescence (510/532) (clone D1)", "value": 154}, {"measurement": "Yellow Fluorescence (510/532) (clone D2)", "value": 154}, {"measurement": "Yellow Fluorescence (510/532) (clone D5)", "value": 154}, {"measurement": "Yellow Fluorescence (510/532) (clone D7)", "value": 156}, {"measurement": "Yellow Fluorescence (510/532) (clone D9)", "value": 156}, {"measurement": "Yellow Fluorescence (510/532) (clone D10)", "value": 141}, {"measurement": "Yellow Fluorescence (510/532) (clone D11)", "value": 143}, {"measurement": "Yellow Fluorescence (510/532) (clone E1)", "value": 139}, {"measurement": "Yellow Fluorescence (510/532) (clone E3)", "value": 151}, {"measurement": "Yellow Fluorescence (510/532) (clone E4)", "value": 153}, {"measurement": "Yellow Fluorescence (510/532) (clone E6)", "value": 155}, {"measurement": "Yellow Fluorescence (510/532) (clone E8)", "value": 165}, {"measurement": "Yellow Fluorescence (510/532) (clone E9)", "value": 165}, {"measurement": "Yellow Fluorescence (510/532) (clone F1)", "value": 159}, {"measurement": "Yellow Fluorescence (510/532) (clone F6)", "value": 144}, {"measurement": "Yellow Fluorescence (510/532) (clone F7)", "value": 161}, {"measurement": "Yellow Fluorescence (510/532) (clone F9)", "value": 165}, {"measurement": "Yellow Fluorescence (510/532) (clone F10)", "value": 116}, {"measurement": "Yellow Fluorescence (510/532) (clone F11)", "value": 166}, {"measurement": "Yellow Fluorescence (510/532) (clone G9)", "value": 170}, {"measurement": "Yellow Fluorescence (510/532) (clone G10)", "value": 168}, {"measurement": "Yellow Fluorescence (510/532) (clone H4)", "value": 156}, {"measurement": "Yellow Fluorescence (510/532) (clone H5)", "value": 161}, {"measurement": "Yellow Fluorescence (510/532) (clone H9)", "value": 168}, {"measurement": "Yellow Fluorescence (510/532) (clone H10)", "value": 175}]}, {"substance": "Split-YFP S1-10 (T65L, V176I, T203Y, T205S) (from UniProt P42212 1-214)", "values": [{"measurement": "Green Fluorescence (488/510) (clone A7)", "value": 2.77}, {"measurement": "Ratio Yellow/Green Fluorescence (clone A7)", "value": 28.5}, {"measurement": "Yellow Fluorescence (510/532) (clone A7)", "value": 79.1}]}, {"substance": "Split-YFP S1-10 (Y200F, T203Y) (from UniProt P42212 1-214)", "values": [{"measurement": "Green Fluorescence (488/510) (clone B9)", "value": 14.7}, {"measurement": "Ratio Yellow/Green Fluorescence (clone B9)", "value": 10.9}, {"measurement": "Yellow Fluorescence (510/532) (clone B9)", "value": 160}]}]}
